Test results: the supplement of paper PMC7125110
± gives the standard error. This sample holds only a part of the variants without activity.

B1: glmS ribozyme (parent)
chain: AUAAAAGCGCCAGAACUACAGAAAUGUAGUUGACGAGGAGGAGGUUUAUCGAAUUUUCGGCGGAUGCCUCCAAA

Legend:
Details in all cases: with glucosamine-6-phosphate
[1] = variants of: B1; assay: self-cleavage kobs at 640 uM GlcN6P; higher = faster cleavage; RNA array
Method in brief: (§1)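 Barcoded ribozyme variants were transcribed in situ on sequenced MiSeq chips by E. coli RNA polymerase. At 37 °C, a hybridised Cy3 probe tracked them while glucosamine-6-phosphate (40 μM to 10 mM) in HEPES/KCl/Mg(OAc)2 buffer flowed in and tiles were imaged over ~14 h. Per-tile medians of signals normalised to baseline and to non-cleaving reference variants were fit to one- or two-exponential decays, giving kobs. kcat and KM came from weighted Michaelis–Menten fits across concentrations.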

[2] = variants of: B1; assay: self-cleavage kobs at 2500 uM GlcN6P; higher = faster cleavage; RNA array
Method in brief: as §1

[3] = variants of: B1; assay: self-cleavage kobs at 10000 uM GlcN6P; higher = faster cleavage; RNA array
Method in brief: as §1

Row | Variant | self-cleavage kobs at 640 uM GlcN6P [1] [s⁻¹] | self-cleavage kobs at 2500 uM GlcN6P [2] [s⁻¹] | self-cleavage kobs at 10000 uM GlcN6P [3] [s⁻¹]
1 | C8A A33G C34A | < 1e-05 |  | 
2 | G7C C61A G63C | < 1e-05 |  | 
3 | A6U U54A | 9.76e-05 ± 2e-05 | 0.000837 ± 0.00027 | 0.000256 ± 4.4e-05
4 | A6G A14C C16G G40C | < 1e-05 | < 1e-05 | 
5 | G7U A33C U47A | < 1e-05 | < 1e-05 | 
6 | C8G C16U U57A | < 1e-05 | < 1e-05 | 
7 | G9U U54C | < 1e-05 |  | 
8 | G7U C8A C10U U46C A52U | < 1e-05 |  | 
9 | A6U G43U C70G | < 1e-05 |  | 
10 | G9U G32C A33G A39G A48U C61U G63U A64U | < 1e-05 | < 1e-05 | 
11 | G9U A15U A42G G63C U69G | < 1e-05 | < 1e-05 | 
12 | G7U G13U A42G | < 1e-05 |  | 
13 | G7U G43U C67G | < 1e-05 |  | 
14 | G7U A14G G40U | < 1e-05 | < 1e-05 | 
15 | C8U A33C G40C G62A C70U | < 1e-05 |  | 
16 | C8G G13C G40A U56A G59U | < 1e-05 |  | 
17 | C8G A33U G41U | < 1e-05 |  | 
18 | C8U U30G U55C | < 1e-05 | < 1e-05 | 
19 | A6G G38A C50G | 0.00032 ± 7.9e-05 | 0.000113 ± 3.5e-05 | 
20 | C10A U56A C70U | 6.36e-05 ± 2.6e-05 | 0.000147 ± 6.5e-05 | 
21 | A6U G29U G32U A42G U47A C71G | < 1e-05 | < 1e-05 | 
22 | G7U U55G U57C | < 1e-05 | < 1e-05 | < 1e-05

Row | Variant | self-cleavage kobs at 640 uM GlcN6P [1] [s⁻¹] | self-cleavage kobs at 2500 uM GlcN6P [2] [s⁻¹] | self-cleavage kobs at 10000 uM GlcN6P [3] [s⁻¹]
23 | C8G A36U C70U | < 1e-05 |  | 
24 | C8G U54C G60A | < 1e-05 | < 1e-05 | 
25 | G9A G44C A53G U57A | < 1e-05 | < 1e-05 | < 1e-05
26 | C8A G32C | < 1e-05 | < 1e-05 | < 1e-05
27 | A6G C67G C68A | 7.11e-05 ± 3.1e-05 |  | 
28 | C8A U49G C68G | 0.000875 ± 0.00033 |  | 
29 | C8G A39U U46G U69G | < 1e-05 | < 1e-05 | 
30 | C8U A15G C16U U55C | < 1e-05 |  | 
31 | G9C G38U U45C | < 1e-05 |  | 
32 | G7U G35U C58U C70A C71U | < 1e-05 |  | 
33 | A6U G35C A64C | < 1e-05 | < 1e-05 | 
34 | A6G A48G C61G | < 1e-05 |  | 
35 | C8U A33U U46G A53G U55A | < 1e-05 | < 1e-05 | 
36 | G7A G37U U46G U55C C58A | < 1e-05 |  | 
37 | A6G C11G G13C C61G | < 1e-05 | < 1e-05 | 
38 | G7U U46A C68U | < 1e-05 | < 1e-05 | 
39 | G7A C34A G43A G66U U69G | < 1e-05 | < 1e-05 | 
40 | C8G A12G U49C | < 1e-05 |  | 
41 | A6U U56G U65A C67A | 9.86e-05 ± 3e-05 | 0.000119 ± 2.9e-05 | 
42 | C10A U47A C70G | 0.000288 ± 0.00012 |  | 
43 | A6G U31G G35A U65C | < 1e-05 | < 1e-05 | 
44 | G7U A14U A52C C68A | 0.00249 ± 0.001 |  | 

Row | Variant | self-cleavage kobs at 640 uM GlcN6P [1] [s⁻¹] | self-cleavage kobs at 2500 uM GlcN6P [2] [s⁻¹] | self-cleavage kobs at 10000 uM GlcN6P [3] [s⁻¹]
45 | C8G A15C C16U | < 1e-05 |  | 
46 | G7U G40C U49A | < 1e-05 |  | 
47 | A6U G29C U56A | < 1e-05 |  | 
48 | C8U C58U G62C A64U | < 1e-05 | < 1e-05 | 
49 | A6G A36C C50G | 0.000132 ± 3.4e-05 |  | 
50 | G9C G32U C50U | < 1e-05 |  | 
51 | C8A G37U A52G C70G | 0.000115 ± 5.1e-05 |  | 
52 | A6U G44U G51U U54A | < 1e-05 | < 1e-05 | 
53 | G9U G59C G63C C70U | < 1e-05 |  | 
54 | A6G U57A C68G | 7.18e-05 ± 2.3e-05 |  | 
55 | G7C U30G A64G | < 1e-05 |  | 
56 | A6U G41A C58A | < 1e-05 |  | 
57 | C10A U46C U54G | < 1e-05 |  | 
58 | G9C C10U U55A | < 1e-05 | < 1e-05 | 
59 | C10A G35C C70U | < 1e-05 |  | 
60 | A6G G38U | < 1e-05 | < 1e-05 | < 1e-05
61 | C10A A12C G43A C67U C70G | < 1e-05 | < 1e-05 | 
62 | C8U C58A U65C | < 1e-05 | < 1e-05 | 
63 | G9C C16G | < 1e-05 | < 1e-05 | 
64 | A6U G9C A12C U55A | < 1e-05 | < 1e-05 | 
65 | G9C C11G | < 1e-05 | < 1e-05 | < 1e-05
66 | G7U U30A G63A | < 1e-05 |  | 

Row | Variant | self-cleavage kobs at 640 uM GlcN6P [1] [s⁻¹] | self-cleavage kobs at 2500 uM GlcN6P [2] [s⁻¹] | self-cleavage kobs at 10000 uM GlcN6P [3] [s⁻¹]
67 | G9C A53C C70U | < 1e-05 | < 1e-05 | 
68 | G9A G41A A53U | < 1e-05 | < 1e-05 | 
69 | C8A G43C C61A | < 1e-05 |  | 
70 | C10A U30C G37U | < 1e-05 |  | 
71 | G7C A15U U45A | < 1e-05 | < 1e-05 | 
72 | C10A G13C C61G G66A C70A | 0.000102 ± 4.5e-05 |  | 
73 | C8U C16A G62U | < 1e-05 | < 1e-05 | 
74 | C10G C68G C71U | 3.95e-05 ± 1.7e-05 |  | 
75 | C8G C50G A52U | < 1e-05 |  | 
76 | A6U A12U G13U U47A C70U | < 1e-05 |  | 
77 | A6G G59A C67A | < 1e-05 | < 1e-05 | 
78 | G9U G29C U54G U69A | < 1e-05 | < 1e-05 | 
79 | C10A C16A A36C A42G U46A U54C U56G G63U | < 1e-05 |  | < 1e-05
80 | C8G C67U C70G | < 1e-05 |  | 
81 | C8U C10U C11U G51C | < 1e-05 |  | 
82 | G7A A39U A48C | < 1e-05 | < 1e-05 | 
83 | C8A G44C U46A | < 1e-05 | < 1e-05 | 
84 | C10G A33C G37A G59U | < 1e-05 | < 1e-05 | 
85 | G7U A15U U47G | < 1e-05 |  | 
86 | G7A G44A U46C A48U | < 1e-05 | < 1e-05 | 
87 | C8A G13A G37U G59C C68G | 0.000781 ± 0.00025 |  | 
88 | G7A G9U C68U | < 1e-05 |  | 

Row | Variant | self-cleavage kobs at 640 uM GlcN6P [1] [s⁻¹] | self-cleavage kobs at 2500 uM GlcN6P [2] [s⁻¹] | self-cleavage kobs at 10000 uM GlcN6P [3] [s⁻¹]
89 | A6U C50A U65A U69C | 8.83e-05 ± 3.7e-05 |  | 
90 | A6U G40U U65C C68U | < 1e-05 | < 1e-05 | 
91 | G9C A15C A53U | < 1e-05 |  | 
92 | G9A U55C | < 1e-05 | < 1e-05 | 
93 | G7C A14U U56A | < 1e-05 | < 1e-05 | 
94 | G9C A39G G40U | < 1e-05 | < 1e-05 | < 1e-05
95 | A6U C8A A64U | < 1e-05 | < 1e-05 | 
96 | C10A A12U C67G | 8.71e-05 ± 3.5e-05 |  | 
97 | A6U U69G | 0.000103 ± 2.3e-05 | 4.72e-05 ± 1.4e-05 | 
98 | C8G A15U U56C | < 1e-05 | < 1e-05 | < 1e-05
99 | G7U G40U C50G | < 1e-05 | < 1e-05 | 
100 | A6G A39C G63U A64U C67G | < 1e-05 |  | < 1e-05
101 | G9U C34U U55C G60C G63A | < 1e-05 |  | 
102 | C8A C10G A15G C16G C50A G63U | < 1e-05 |  | 
103 | A6G C8G C11G G13U C50G C61A C71U | 0.00556 ± 0.0017 | 0.000121 ± 5.1e-05 | 
104 | A6G A36C G38C | < 1e-05 |  | < 1e-05
105 | A6G G29U G62C | < 1e-05 |  | 
106 | C10A C61G C67G | 0.00401 ± 0.0011 |  | 
107 | C8G G38U G41A U46G G59A | < 1e-05 | < 1e-05 | 
108 | C8U C50A | < 1e-05 | < 1e-05 | < 1e-05
109 | G7C C8G G9C C19A C61A | < 1e-05 | < 1e-05 | 
110 | C8G A15G A33C | < 1e-05 | < 1e-05 | 

Row | Variant | self-cleavage kobs at 640 uM GlcN6P [1] [s⁻¹] | self-cleavage kobs at 2500 uM GlcN6P [2] [s⁻¹] | self-cleavage kobs at 10000 uM GlcN6P [3] [s⁻¹]
111 | A6U C67U C70G | 0.000211 ± 6.3e-05 |  | 
112 | C8G C11U G32U G59U | < 1e-05 | < 1e-05 | 
113 | C8A C11G G59C C61U | < 1e-05 | < 1e-05 | 
114 | C8G G32U G44C | < 1e-05 |  | 
115 | G7C C8A U30C A33C | < 1e-05 | < 1e-05 | < 1e-05
116 | A6G A14C C34U | < 1e-05 |  | 
117 | C8U G9A G29U C58U | < 1e-05 | < 1e-05 | 
118 | G9U A36C A39G C70U | < 1e-05 |  | 
119 | C8U G13C A14C | < 1e-05 | < 1e-05 | 
120 | G7C G43U A53C G66U | < 1e-05 |  | 
121 | G7U A36C A42C G66C | < 1e-05 |  | 
122 | G9U C10A A42U G51A U54G G60C | < 1e-05 |  | 
123 | A6U C16U G41U | < 1e-05 |  | 
124 | C8U G13A G66U | < 1e-05 | < 1e-05 | 
125 | C8G G35A U55C G60U C67A | < 1e-05 | < 1e-05 | 
126 | C8U G63U C68U | < 1e-05 |  | 
127 | G7A U56C C68U | < 1e-05 |  | < 1e-05
128 | G7U G9A C58A C61A C67U | < 1e-05 | < 1e-05 | 
129 | A6G A15G A42G | 0.000137 ± 4.7e-05 |  | 
130 | C8U A33U G60U | < 1e-05 | < 1e-05 | 
131 | G7U C8U G40U G62C | < 1e-05 |  | 
